{"source": "patent US10363306B2", "about": "“Cytokines and neuroantigens for treatment of immune disorders” (East Carolina University, priority 2009, dated 2019)", "molecules": {"B1": {"name": "IFNβ-NAg: Fusion protein: rat IFNβ, enterokinase linker (GDDDDKG), encephalitogenic 73-87 peptide of guinea pig MBP, C-terminal 6-histidine tag (protein)", "chain": "IDYKQLQFRQSTSIRTCQKLLRQLNGRLNLSYRTDFKIPMEVMHPSQMEKSYTAFAIQVMLQNVFLVFRSNFSSTGWNETIVESLLDELHQQTELLEIILKEKQEERLTWVTSTTTLGLKSYYWRVQRYLKDKKYNSYAWMVVRAEVFRNFSIILRLNRNFQNGDDDDKGPQKSQRSQDENPVVHHHHHH"}}, "key": {"RsL.11T": {"system": "RsL.11T", "experiment": "Anti-proliferative/killing activity on RsL.11T T cells", "type": "cell-based, rat", "settings": "baculovirus supernatants", "procedure": "(§1) FIG. 1. The IFNβ-NAg his-tagged fusion protein was biologically active and was purified on nickel resins. (A) To assess whether IFNβ-NAg induced class I MHC expression, thymocytes (5×10^6/ml in complete RPMI) were cultured with or without IFNβ-NAg for 2 days and then were stained with B5 (anti-MHC-I), OX18 (anti-MHC-I), R73 (anti-TCRβ), or OX81 (anti-IL4; isotype control) and were analyzed by flow cytometry. (B) To assess IFNβ-mediated anti-proliferative activity, supernatants from two independently derived IFNβ-NAg expression systems as well as supernatants from several control expression systems were added at designated titrations (x-axis) to IL-2 stimulated cultures of BN-GP T cells. (C) To assess the specificity of anti-proliferative activity, baculovirus supernatants containing IFNβ-NAg were added at designated titrations to cultures of rat (R1T, BN-GP, RsL.11T, RsL.11, or Conal.8D9) or mouse (CTLL) T cells. Proliferative assays (B & C) were pulsed with [^3H]thymidine on the second day of a 3-day culture. (D) Shown is a representative SDS-PAGE analysis of purified IFNβ-NAg. […]\n(§2) Cultures were pulsed with 1 uCi of [^3H]thymidine (6.7 Ci/mmol, New England Nuclear) during the last day of a 3 or 4 day culture. […] [^3H]thymidine incorporation into DNA was measured by use of a Wallac 1450 Microbeta Plus liquid scintillation counter. […]"}, "R1T": {"system": "R1T", "experiment": "Anti-proliferative/killing activity on R1T T cells", "type": "cell-based, rat", "settings": "baculovirus supernatants", "procedure": "as §1, §2"}, "thymocytes": {"system": "thymocytes", "experiment": "Induction of class I MHC expression on thymocytes (flow cytometry)", "type": "cell-based", "settings": "2 days of culture", "procedure": "FIG. 1. The IFNβ-NAg his-tagged fusion protein was biologically active and was purified on nickel resins. (A) To assess whether IFNβ-NAg induced class I MHC expression, thymocytes (5×10^6/ml in complete RPMI) were cultured with or without IFNβ-NAg for 2 days and then were stained with B5 (anti-MHC-I), OX18 (anti-MHC-I), R73 (anti-TCRβ), or OX81 (anti-IL4; isotype control) and were analyzed by flow cytometry. (B) To assess IFNβ-mediated anti-proliferative activity, supernatants from two independently derived IFNβ-NAg expression systems as well as supernatants from several control expression systems were added at designated titrations (x-axis) to IL-2 stimulated cultures of BN-GP T cells. (C) To assess the specificity of anti-proliferative activity, baculovirus supernatants containing IFNβ-NAg were added at designated titrations to cultures of rat (R1T, BN-GP, RsL.11T, RsL.11, or Conal.8D9) or mouse (CTLL) T cells. Proliferative assays (B & C) were pulsed with [^3H]thymidine on the second day of a 3-day culture. (D) Shown is a representative SDS-PAGE analysis of purified IFNβ-NAg.\nT cells were incubated with a 1/20 titration of a concentrated supernatant containing the designated mAb for 45 minutes at 4° C. […] Data were acquired with a Becton Dickinson FACScan flow cytometer and were analyzed with the CELLQuest software program. […]"}, "EAE in SJL mice": {"system": "EAE in SJL mice", "experiment": "Treatment of passively induced EAE and second active challenge in SJL mice", "type": "in vivo", "settings": "murine IFNβ/PLP139-151 fusion protein; 2 nanomoles s.c. days 12, 14, 16", "procedure": "FIG. 8. […] Shown are the time-courses of EAE (A) and the percent maximal weight (B) from example 4.\nOn day 0, mice were passively challenged with activated, encephalitogenic T cells specific for the PLP139-151 epitope. […] On day 12, three groups of mice were matched for clinical severity. On days 12, 14, and 16, mice were treated with the IFNβ-NAg fusion protein (2 nanomoles), a synthetic PLP139-151 peptide (2 nanomoles), or saline. Treatments were given by subcutaneous injections of proteins or peptides in saline. On day 24, mice were actively challenged to induce a second bout of EAE by challenge with 200 micrograms of PLP139-151 in Complete Freund's Adjuvant. […] Furthermore, the fusion protein promoted a tolerogenic effect that ameliorated the subsequent bout of EAE (FIG. 8A). These observations support the concept that the IFNβ-NAg fusion protein may have clinical activities conducive for the treatment of autoimmune demyelinating disease of the central nervous system."}, "Conal.8D9": {"system": "Conal.8D9", "experiment": "Anti-proliferative/killing activity on Conal.8D9 T cells", "type": "cell-based, rat", "settings": "baculovirus supernatants", "procedure": "as §1, §2"}, "RsL.11 clone": {"system": "RsL.11 clone", "experiment": "Anti-proliferative/killing activity on RsL.11 T cells", "type": "cell-based, rat", "settings": "baculovirus supernatants", "procedure": "as §1, §2"}, "CTLL T cells": {"system": "CTLL T cells", "experiment": "Anti-proliferative/killing activity on CTLL T cells", "type": "cell-based, mouse", "settings": "murine CTLL T cells; baculovirus supernatants", "procedure": "as §1, §2"}}, "data": [{"molecule": "B1", "values": [{"measurement": "cell death of T cell line", "setting": "RsL.11T", "value": "directly caused the death"}, {"measurement": "cell death of T cell line", "setting": "R1T", "value": "did not kill"}, {"measurement": "expression of MHC-I on immature thymocytes", "setting": "thymocytes; 1% titration of baculovirus expression supernatant", "value": "induced the expression of MHC-I"}, {"measurement": "TCRβ expression", "setting": "thymocytes; baculovirus expression supernatant", "value": "did not affect TCRβ expression"}, {"measurement": "EAE-associated cachexia (percent maximal weight)", "setting": "EAE in SJL mice", "value": "acutely reversed EAE-associated cachexia"}, {"measurement": "cell death of T cell line", "setting": "Conal.8D9", "value": "directly caused the death"}, {"measurement": "cell death of T cell line", "setting": "RsL.11 clone", "value": "directly caused the death"}, {"measurement": "cell death of T cell line", "setting": "CTLL T cells", "value": "did not kill"}]}]}
